# Assay results from patent US20040229260.
# T1: protein encoded by clone B33 (cDNA insert homologous to C-terminus of Nucleobindin), Q02818
# T1 chain: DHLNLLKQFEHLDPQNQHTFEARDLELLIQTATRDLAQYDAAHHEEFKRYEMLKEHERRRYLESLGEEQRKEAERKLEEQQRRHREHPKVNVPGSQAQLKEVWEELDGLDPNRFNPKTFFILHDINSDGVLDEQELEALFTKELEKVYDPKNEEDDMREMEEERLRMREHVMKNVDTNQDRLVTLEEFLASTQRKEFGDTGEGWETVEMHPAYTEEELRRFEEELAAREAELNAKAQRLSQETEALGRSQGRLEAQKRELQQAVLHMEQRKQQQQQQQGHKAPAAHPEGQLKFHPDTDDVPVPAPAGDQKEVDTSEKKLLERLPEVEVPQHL
# T2: protein encoded by clone L20 (identical to amino acids 104-420 of NEFA), P80303
# T2 chain: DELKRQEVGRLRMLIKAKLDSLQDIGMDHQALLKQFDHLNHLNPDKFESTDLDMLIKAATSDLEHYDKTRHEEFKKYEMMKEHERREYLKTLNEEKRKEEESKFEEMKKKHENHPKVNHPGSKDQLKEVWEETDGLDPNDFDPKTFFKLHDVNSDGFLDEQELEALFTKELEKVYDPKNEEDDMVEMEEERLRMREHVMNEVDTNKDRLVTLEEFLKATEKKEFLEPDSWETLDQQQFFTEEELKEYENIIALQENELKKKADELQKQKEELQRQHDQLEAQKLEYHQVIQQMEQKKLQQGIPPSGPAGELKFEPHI
# T3: polypeptide encoded by clone J2 (partial sequence of putative human N-acetylglucosamine-6-phosphate deacetylase)
# T3 chain: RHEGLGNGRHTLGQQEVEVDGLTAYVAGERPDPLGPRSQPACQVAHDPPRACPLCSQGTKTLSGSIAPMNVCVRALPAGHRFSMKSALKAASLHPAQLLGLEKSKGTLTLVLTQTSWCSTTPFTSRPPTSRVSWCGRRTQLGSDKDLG
# T4: bacterially produced caspase-8 (in-vitro protease assay of Example 2.4), Q14790
# T4 chain: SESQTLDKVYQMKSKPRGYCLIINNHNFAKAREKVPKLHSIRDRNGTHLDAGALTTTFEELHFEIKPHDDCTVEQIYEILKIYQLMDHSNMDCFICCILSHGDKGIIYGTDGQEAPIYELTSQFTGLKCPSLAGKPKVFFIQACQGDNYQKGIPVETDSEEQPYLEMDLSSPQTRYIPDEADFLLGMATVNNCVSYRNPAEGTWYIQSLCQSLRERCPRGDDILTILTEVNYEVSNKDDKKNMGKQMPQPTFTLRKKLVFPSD
# B1: caspase 3 expressed in E. coli as Histidine tagged subunit 2-subunit 1 (S2-S1) fusion protein (protein)
# chain: SGISLDNSYKMDYPEMGLCIIINNKNFHKSTGMTSRSGTDVDAANLRETFRNLKYEVRNKNDLTREEIVELMRDVSKEDHSKRSSFVCVLLSHGEEGIIFGTNGPVDLKKITNFFRGDRCRSLTGKPKLFIIQACRGTELDCGIETDSGVDDDMACHKIPVEADFLYAYSTAPGYYSWRNSKDGSWFIQSLCAMLKQYADKLEFMHILTRVNRKVATEFESFSFDATFHAKKQIPCIVSMLTKELYFYH
# B2: bacterially produced caspase-8 (in-vitro protease assay of Example 2.4) (protein)
# chain: T4 chain
# B3: protein encoded by clone L5 (Tip60, Tat interacting protein 60 kDa, lacking amino acids 94 to 145) (protein)
# chain: MAEVGEIIEGCRLPVLRRNQDNEDEWPLAEILSVKDISGRKLFYVHYIDFNKRLDEWVTHERLDLKKIQFPKKEAKTPTKNGLPGSRPGSPEREVKRKVEVVSPATPVPSETAPASVFPQNGAARRAVAAQPGRKRKSNCLGTDEDSQDSSDGIPSAPRMTGSLVSDRSHDDIVTRMKNIECIELGRHRLKPWYFSPYPQELTTLPVLYLCEFCLKYGRSLKCLQRHLTKCDLRHPPGNEIYRKGTISFFEIDGRKNKSYSQNLCLLAKCFLDHKTLYYDTDPFLFYVMTEYDCKGFHIVGYFSKEKESTEDYNVACILTLPPYQRRGYGKLLIEFSYELSKVEGKTGTPEKPLSDLGLLSYRSYWSQTILEILMGLKSESGERPQITINEISEITSIKKEDVISTLQYLNLINYYKGQYILTLSEDIVDGHERAMLKRLLRIDSKCLHFTPKDWSKRGKW
# B4: caspase 9 expressed in E. coli as Histidine tagged subunit 2-subunit 1 (S2-S1) fusion protein (protein)
# chain: GALESLRGNADLAYILSMEPCGHCLIINNVNFCRESGLRTRTGSNIDCEKLRRRFSSLHFMVEVKGDLTAKKMVLALLELAQQDHGALDCCVVVILSHGCQASHLQFPGAVYGTDGCPVSVEKIVNIFNGTSCPSLGGKPKLFFIQACGGEQKDHGFEVASTSPEDESPGSNPEPDATPFQEGLRTFDQLDAISSLPTPSDIFVSYSTFPGFVSWRDPKSGSWYVETLDDIFEQWAHSEDLQSLLLRVANAVSVKGIYKQMPGCFNFLRKKLFFKTS
# Key:
# [1] = molecular target: protein encoded by the partial P43 cDNA clone
# [2] = molecular target: T1, protein encoded by clone B33 (cDNA …)
# [3] = molecular target: T2, protein encoded by clone L20 (identical …)
# [4] = molecular target: T3, polypeptide encoded by clone J2 …
# [5] = molecular target: protein encoded by clone B11 (cDNA insert homologous to the C-terminal end of CTP-Phosphoenolamine cytidylyltransferase), Q99447
# Sequence of protein encoded by clone B11 (cDNA insert homologous to the C-terminal end of CTP-Phosphoenolamine cytidylyltransferase), Q99447 (Q99447 213-389): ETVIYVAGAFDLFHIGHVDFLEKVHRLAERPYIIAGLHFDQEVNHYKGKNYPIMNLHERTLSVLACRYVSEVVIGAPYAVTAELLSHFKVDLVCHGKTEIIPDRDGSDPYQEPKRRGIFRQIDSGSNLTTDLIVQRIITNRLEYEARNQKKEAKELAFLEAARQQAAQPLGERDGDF
# [6] = molecular target: protein encoded by clone L12
# [7] = molecular target: T4, bacterially produced caspase-8 …
protein,measurement,setting,value
B1,cleavage in the protease assay with bacterial lysate (1 or 4 RU),[1],it was not cleaved by caspase-3 nor by caspase-9
B2,cleavage in vitro,[2],Clone B33 was cleaved by caspase-8 both in-vitro and in-vivo
same,cleavage in vitro,[3],Clone L20 is cleaved by caspase 8 both in-vitro and in-vivo
same,cleavage in vitro,[4],The polypeptide encoded by Clone J2 is cleaved in-vitro by caspase-8
same,cleavage in the in-vitro protease assay,[5],Clone B11 was cleaved in-vitro by caspase-8 as demonstrated in the assay described in the above-mentioned Example 2.4
same,"cleavage in the in-vitro protease assay (35S labeled protein, SDS-PAGE, autoradiography)",[6],Clone L12 is cleaved in-vitro by caspase-8 as shown by an in-vitro protease assay
B3,cleavage in the in-vitro protease assay,[7],Clone L5 was cleaved in-vitro by caspase-8 in the in-vitro protease assay described in Example 2.4
B4,cleavage in the protease assay with bacterial lysate (1 or 4 RU),[1],it was not cleaved by caspase-3 nor by caspase-9
